Data reported in patent US7101989 (UNIVERSITY OF NORTH CAROLINA AT CHAPEL HILL, dated 2006).

Biological target: the molecule itself
Assay: SDS-PAGE of outer membranes solubilised at 37 C or 100 C

B1: DsrA (Ducreyi Serum Resistance A protein) of H. ducreyi strain 35000 (other)
chain: QQPPKFAGVSSLYSYEYDYGKGKWTWSNEGGFDIKVPGIKMKPKEWISKQATYLELQHYMPYTPVLVTYAPGVSPSPILLYPMSDPDQLGINRQQLKLNLYSYFNDLRHDFKLKVLDARISKNKQNIDTISKYLLELGTYLDDSYRMMEQNTHNINKLSKELQTGLANQSALSMLVQPNGVGKTSVSAAVGGYRDKTALAIGVGSRITDRFTAKAGVAFNTYNGGMSYGASVGYEF
notes: In Western blots DsrA was denatured, from outer membranes or total cellular proteins; In the vitronectin experiment it was on whole surface-iodinated bacteria and was then solubilised in detergent; It forms multimers of unstated number; also called 30 kDa protein; 30 kDa band
B1: binds.
